The subject of the test is human ovarian cancer cell line SKOV3. The experiment in a line: Cell proliferation test by dispersing SKOV3 cells with growth factors (Experimental Example 4). The test is classed as cell-based. To be noted: 10 days. The method, then:
By a method similar to the preparation method of medium composition in Analysis Example 1, a medium composition containing 10 (v/v) % FBS, and 0.03 (w/v) % of low-molecular agar in DMEM (manufactured by Wako Pure Chemical Industries, Ltd.) was prepared.
Then, human ovarian cancer cell line SKOV3 (manufactured by DS PHARMA BIOMEDICAL CO., LTD.) was suspended in the above-mentioned medium composition containing low-molecular agar at 37,000 cells/mL, and dispensed to the wells of a 96 well flat plane ultra-low attachment surface microplate (manufactured by Corning Incorporated, #3474) at 135 μL per 1 well. The plate was stood in a CO2 incubator (37° C., 5% CO2), and a growth factor was added the next day. A similar operation was performed with 10 (v/v) % FBS-containing DMEM free of low-molecular agar. As a growth factor, human heparin bindability epithelial cell growth factor (hHB-EGF) (manufactured by PeproTech, Inc.) at a final concentration of 30 ng/mL or 100 ng/mL, human epithelial cell growth factor (hEGF) (manufactured by PeproTech, Inc.) and human transforming growth factor α (hTGFα) (manufactured by PeproTech, Inc.) each at a final concentration of 1 ng/mL, 3 ng/mL or 10 ng/mL were added by 15 μL per 1 well.
Successively, the plate was cultured in a standing state in a CO2 incubator (37° C., 5% CO2) for 10 days. As a negative control, DMEM in an amount equal to that of a growth factor was added. CellTiter-Glo Luminescent Cell Viability Assay (manufactured by Promega) (100 μL) was added to the cell culture medium after culturing for 10 days, stood for 10 min at room temperature, and the amount of luminescence was measured by a microplate reader (“FlexStation 3”, manufactured by Molecular Devices) and according to the protocol recommended by Promega. The amount of luminescence of the medium composition alone was subtracted, whereby the number of viable cells was measured.
The relative cell number when the amount of luminescence of the negative control is 1 was determined from the amount of luminescence (corresponding to the number of SKOV3 cells) after culturing for 10 days after the addition of the growth factor, and shown in Table 11.

B1: hHB-EGF: human heparin bindability epithelial cell growth factor (PeproTech) (protein, UniProt Q99075 63-148, looked up)
Heparin-binding EGF-like …: DLQEADLDLLRVTLSSKPQALATPNKEEHGKRKKKGKGLGKKRDPCLRKYKDFCIHGECKYVKELRAPSCICHPGYHGERCHGLSL
With B1, the “relative cell number (negative control = 1)” value (shortened to “relative cell number”) (growth factor 30 ng/mL, low-molecular agar 0 (w/v)%) is on record as 1.358; the “relative cell number” value (growth factor 30 ng/mL, low-molecular agar 0.03 (w/v)%) is 1.774; the “relative cell number” value (growth factor 100 ng/mL, low-molecular agar 0 (w/v)%) worked out at 1.451; the “relative cell number” value (growth factor 100 ng/mL, low-molecular agar 0.03 (w/v)%) stood at 1.748.

B2: hEGF: human epithelial cell growth factor (PeproTech) (protein, UniProt P01133 23-1207, looked up)
Pro-epidermal growth factor: PQHWSCPEGTLAGNGNSTCVGPAPFLIFSHGNSIFRIDTEGTNYEQLVVDAGVSVIMDFHYNEKRIYWVDLERQLLQRVFLNGSRQERVCNIEKNVSGMAINWINEEVIWSNQQEGIITVTDMKGNNSHILLSALKYPANVAVDPVERFIFWSSEVAGSLYRADLDGVGVKALLETSEKITAVSLDVLDKRLFWIQYNREGSNSLICSCDYDGGSVHISKHPTQHNLFAMSLFGDRIFYSTWKMKTIWIANKHTGKDMVRINLHSSFVPLGELKVVHPLAQPKAEDDTWEPEQKLCKLRKGNCSSTVCGQDLQSHLCMCAEGYALSRDRKYCEDVNECAFWNHGCTLGCKNTPGSYYCTCPVGFVLLPDGKRCHQLVSCPRNVSECSHDCVLTSEGPLCFCPEGSVLERDGKTCSGCSSPDNGGCSQLCVPLSPVSWECDCFPGYDLQLDEKSCAASGPQPFLLFANSQDIRHMHFDGTDYGTLLSQQMGMVYALDHDPVENKIYFAHTALKWIERANMDGSQRERLIEEGVDVPEGLAVDWIGRRFYWTDRGKSLIGRSDLNGKRSKIITKENISQPRGIAVHPMAKRLFWTDTGINPRIESSSLQGLGRLVIASSDLIWPSGITIDFLTDKLYWCDAKQSVIEMANLDGSKRRRLTQNDVGHPFAVAVFEDYVWFSDWAMPSVMRVNKRTGKDRVRLQGSMLKPSSLVVVHPLAKPGADPCLYQNGGCEHICKKRLGTAWCSCREGFMKASDGKTCLALDGHQLLAGGEVDLKNQVTPLDILSKTRVSEDNITESQHMLVAEIMVSDQDDCAPVGCSMYARCISEGEDATCQCLKGFAGDGKLCSDIDECEMGVPVCPPASSKCINTEGGYVCRCSEGYQGDGIHCLDIDECQLGEHSCGENASCTNTEGGYTCMCAGRLSEPGLICPDSTPPPHLREDDHHYSVRNSDSECPLSHDGYCLHDGVCMYIEALDKYACNCVVGYIGERCQYRDLKWWELRHAGHGQQQKVIVVAVCVVVLVMLLLLSLWGAHYYRTQKLLSKNPKNPYEESSRDVRSRRPADTEDGMSSCPQPWFVVIKEHQDLKNGGQPVAGEDGQAADGSMQPTSWRQEPQLCGMGTEQGCWIPVSSDKGSCPQVMERSFHMPSYGTQTLEGGVEKPHSLLSANPLWQQRALDPPHQMELTQ
modifications: Pro-epidermal growth factor
Consider B2, for which the “relative cell number” value by setting is: (growth factor 1 ng/mL, low-molecular agar 0 (w/v)%) 1.380; (growth factor 1 ng/mL, low-molecular agar 0.03 (w/v)%) 1.413; (growth factor 3 ng/mL, low-molecular agar 0 (w/v)%) 1.392; (growth factor 3 ng/mL, low-molecular agar 0.03 (w/v)%) 1.745; (growth factor 10 ng/mL, low-molecular agar 0 (w/v)%) 1.678; (growth factor 10 ng/mL, low-molecular agar 0.03 (w/v)%) 1.984.

(Values after patent US10914725B2, “Culture medium additive, culture medium composition, and method for culturing cells or tissue using same” (NISSAN CHEMICAL INDUSTRIES, LTD., priority 2015, dated 2021).)
